Test results reported in patent US20220281969A1 (ANTLERA THERAPEUTICS, published 2022).

Molecular target: T1, recombinant mouse LRP5-His chimera (mouse, UniProt Q91VN0 31-1383)
T1 construct: extracellular domain; not shown: His tag
T1 sequence (looked up): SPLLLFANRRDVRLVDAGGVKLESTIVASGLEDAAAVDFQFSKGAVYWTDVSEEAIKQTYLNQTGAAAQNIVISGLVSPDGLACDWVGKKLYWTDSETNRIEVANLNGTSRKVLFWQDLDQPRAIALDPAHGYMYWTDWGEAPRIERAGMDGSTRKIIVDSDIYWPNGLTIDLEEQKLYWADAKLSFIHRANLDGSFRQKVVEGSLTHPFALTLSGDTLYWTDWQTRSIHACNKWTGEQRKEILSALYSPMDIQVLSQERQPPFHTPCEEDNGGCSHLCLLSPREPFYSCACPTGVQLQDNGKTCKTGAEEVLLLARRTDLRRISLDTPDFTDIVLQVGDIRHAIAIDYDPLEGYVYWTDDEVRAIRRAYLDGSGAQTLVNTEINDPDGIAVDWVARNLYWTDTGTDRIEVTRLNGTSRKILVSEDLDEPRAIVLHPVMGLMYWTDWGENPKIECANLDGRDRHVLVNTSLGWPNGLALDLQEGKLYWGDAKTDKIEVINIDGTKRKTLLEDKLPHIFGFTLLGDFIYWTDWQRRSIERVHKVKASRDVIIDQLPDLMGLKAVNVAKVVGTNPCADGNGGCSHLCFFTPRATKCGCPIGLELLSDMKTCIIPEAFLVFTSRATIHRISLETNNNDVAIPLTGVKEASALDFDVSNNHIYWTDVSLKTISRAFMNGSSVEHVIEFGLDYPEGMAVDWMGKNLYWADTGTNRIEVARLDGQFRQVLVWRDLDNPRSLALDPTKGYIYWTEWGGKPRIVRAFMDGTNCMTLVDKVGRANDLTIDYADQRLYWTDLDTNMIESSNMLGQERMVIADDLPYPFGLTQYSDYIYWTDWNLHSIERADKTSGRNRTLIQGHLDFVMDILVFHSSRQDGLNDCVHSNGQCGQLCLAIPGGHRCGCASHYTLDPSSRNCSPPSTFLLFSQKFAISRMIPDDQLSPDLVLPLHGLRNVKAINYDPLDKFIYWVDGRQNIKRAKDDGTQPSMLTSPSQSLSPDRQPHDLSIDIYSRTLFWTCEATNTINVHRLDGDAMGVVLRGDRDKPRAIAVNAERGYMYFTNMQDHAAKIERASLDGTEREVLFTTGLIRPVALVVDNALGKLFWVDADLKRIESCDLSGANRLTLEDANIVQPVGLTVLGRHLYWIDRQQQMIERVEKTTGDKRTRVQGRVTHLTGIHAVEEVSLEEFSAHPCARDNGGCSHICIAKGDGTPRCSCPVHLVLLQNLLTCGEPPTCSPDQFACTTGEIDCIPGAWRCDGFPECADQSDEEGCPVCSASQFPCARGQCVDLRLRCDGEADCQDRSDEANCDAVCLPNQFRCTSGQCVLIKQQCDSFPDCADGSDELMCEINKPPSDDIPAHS
Assay: single-point ELISA, IgG1 on coated antigen
Protocol: FIGS. 1a and 1b show LRP six antibodies. (A) The amino acid sequences of the complementarity determining regions (CDR) of the heavy (H) and the light (L) chains are presented. The antibodies were grouped into unique epitopes as determined by competitive ELISAs. (B) Single-point ELISAs were performed on 96-well Maxisorb immune plates coated with the […] of mouse LRP5, mouse LRP6 and human LRP6 chimeras. The plates were incubated with the purified Fab or IgG1 at the concentrations indicated followed by incubation with horseradish peroxidase (HRP)-conjugated anti-kappa antibody. The wells were washed eight times followed by incubation with 3,3′,5,5′-tetramethylbenzidine/H₂O₂ peroxidase (TMB) substrate for 5-10 min. The reaction was stopped by adding one M H₃PO₄ and the absorbance was measured spectrometrically at 450 nm in a microtiter plate reader.
The full length IgG1s were purified and a single-point ELISA was done to determine the specificity of the antibodies. […] A multipoint competitive ELISA was used to determine the relative affinities of the antibodies to the recombinant antigen.

binding result: no binding
B1: LRP6-E3 IgG1 antibody (antibody, V domains shown)
VH: EVQLVESGGGLVQPGGSLRLSCAASGFNLYYYSMHWVRQAPGKGLEWVASIYSSYGYTYYADSVKGRFTISADTSKNTAYLQMNSLRAEDTAVYYCARYAGYYYYPWAYYGWPFSGLDYWGQGTLVTVSS
VL: DIQMTQSPSSLSASVGDRVTITCRASQSVSSAVAWYQQKPGKAPKLLIYSASSLYSGVPSRFSGSRSGTDFTLTISSLQPEDFATYYCQQAGSAPYHLITFGQGTKVEIKR
notes: Tested as purified full length IgG1
